Laboratory results from patent US11534461B2, “High affinity merkel cell polyomavirus T antigen-specific TCRS and uses thereof” (priority 2016, dated 2022).

Experiments:
[1] = test system: peptide loaded HLA-A*02:01 K562 cells; assay: 4 hour chromium release assay, peptide loaded targets; assay type: cell-based; conditions: transduced CD8+ T cells
[2] = test system: HLA-A*02:01 fibroblast cell lines transduced with MCPyV LT antigen; assay: 4 hour chromium release assay, LT antigen transduced targets; assay type: cell-based; conditions: transduced CD8+ T cells
[3] = test system: KLL-tetramer; assay: KLL-tetramer staining of MCC1-transduced T cells after expansion; assay type: binding; conditions: CD8+ and CD4+ T cells transduced with codon-optimized TCR, expanded in culture for two weeks
[4] = test system: peptide loaded HLA-A*02:01 K562 cells; assay: Effector cytokine secretion (IFNγ, IL-2, TNF) of transduced T cells; assay type: cell-based
Excerpt: (A) CD8 T cells were successfully transduced with codon-optimized MCC-specific TCR (MCC1).
The polynucleotide of one of the patient-derived class I high avidity TCR clones (MCC1) was codon optimized and transduced into CD8+ T and examined for their ability to activate […].

[5] = test system: peptide loaded HLA-A*02:01 K562 cells; assay: Proliferation of transduced T cells over 72 hours; assay type: cell-based; conditions: transduced CD8+ T cells

B1: MCC1: patient-derived class I high avidity MCPyV T antigen KLL-specific TCR, codon optimized and transduced into T cells (protein)
alpha: RKEVEQDPGPFNVPEGATVAFNCTYSNSASQSFFWYRQDCRKEPKLLMSVYSSGNEDGRFTAQLNRASQYISLLIRDSKLSDSATYLCVVATYSGGGADGLTFGKGTHLIIQPDIQNPDPAVYQLRDSKSSDKSVCLFTDFDSQTNVSQSKDSDVYITDKCVLDMRSMDFKSNSAVAWSNKSDFACANAFNNSIIPEDTFFPSPESSCDVKLVEKSFETDTNLNFQNLSVIGFRILLLKVAGFNLLMTLRLWSS
beta: DAGITQSPRYKITETGRQVTLMCHQTWSHSYMFWYRQDLGHGLRLIYYSAAADITDKGEVPDGYVVSRSKTENFPLTLESATRSQTSVYFCASSSGNPSTDTQYFGPGTRLTVLDLKNVFPPEVAVFEPSEAEISHTQKATLVCLATGFYPDHVELSWWVNGKEVHSGVCTDPQPLKEQPALNDSRYCLSSRLRVSATFWQNPRNHFRCQVQFYGLSENDEWTQDRAKPVTQIVSAEAWGRADCGFTSESYQQGVLSATILYEILLGKATLYAVLVSALVLMAMVKRKDSRG
- specific killing of peptide loaded targets [1]: specifically killed
- specific killing of MCPyV LT antigen transduced targets [2]: specifically killed
- tetramer positivity after expansion [3]: remained tetramer positive
- maximum percentage of transduced cells that secrete IFNγ, IL-2 and TNF ([4]; saturating levels of peptide (5 μg/mL), CD4+ versus CD8+ T cells): similar
- sensitivity to engage cytokine secretion ([4]; transduced CD4+ T cells): reduced sensitivity
- effector cytokine production ([4]; transduced CD8+ T cells): make effector cytokines
- proliferation [5]: readily proliferate
